Experimental data from PMC5222588, “Binding of Myomesin to Obscurin-Like-1 at the Muscle M-Band Provides a Strategy for Isoform-Specific Mechanical Protection” (Structure(London, England:1993), 2017).
Each block holds one molecule with its values, some of them ahead of it.

Columns and labels:
[1] = molecular target: OL3:My4LMy5 complex (obscurin-like-1:myomesin heterodimer) (human) (UniProt O75147); experiment: crystal structure; OL3:My4LMy5 complex at 3.0 mg/mL; 20% PEG8000, 0.1 M Tris-HCl pH 8.5, 0.2 M MgCl2, matrix microseeding; 3.1 Å, space group C2
[2] = molecular target: OL3:My4LMy5 complex (obscurin-like-1:myomesin heterodimer) (human) (UniProt O75147); experiment: SEC; Superdex S75 10/300; OL3:My4LMy5 complex injected at 3.0 and 8.2 mg/mL (0.082–0.225 mM); dimer of heterodimers to heterodimers
[3] = molecular target: T1, obscurin third immunoglobulin domain (O3) (human, UniProt Q5VST9 236-331); experiment: SEC; GST-cleaved complexes co-expressed in E. coli from a bicistronic vector; SEC during purification; settings: both partners purified
T1 construct: obscurin, human, third Ig domain (O3); Insoluble when expressed alone; source: E. coli, co-expressed with myomesin My4LMy5 from a bicistronic vector, purified as a complex (SEC); not shown: GST, N-terminal, cleaved
T1 sequence (looked up): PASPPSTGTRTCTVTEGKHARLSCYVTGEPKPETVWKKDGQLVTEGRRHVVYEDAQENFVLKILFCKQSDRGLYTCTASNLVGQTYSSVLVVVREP

[4] = molecular target: T2, obscurin-like-1 third immunoglobulin domain (OL3) (human, UniProt O75147 251-339); experiment: as above; settings: both partners purified
T2 construct: obscurin-like-1, human, third Ig domain (OL3); the printed contact residues F265 to V332 lie in it; Insoluble when expressed alone; obtained only by co-expression with myomesin; Construct limits are in the Supplemental Experimental Procedures; source: E. coli, co-expressed with myomesin from a bicistronic vector, purified as a complex (SEC); not shown: GST, N-terminal, cleaved
T2 sequence: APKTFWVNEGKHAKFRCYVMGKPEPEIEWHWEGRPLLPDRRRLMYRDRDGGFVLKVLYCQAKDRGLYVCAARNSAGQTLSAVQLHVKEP

stoichiometry N [1]: 2 | dimer:monomer ratio at 8.2 mg/mL [2]: 30 % dimer | stoichiometry N [2]: 2
Molecule: OL3:My4LMy5 complex (obscurin-like-1:myomesin heterodimer) (from UniProt O75147 251-339; P52179 510-739)

stoichiometry N [3]: 1 | stoichiometry N [4]: 1
B1: myomesin region encompassing the fourth and fifth Fn-III domains (My4LMy5) (domain or fragment, human)
chain: PAAPLDVKCLEANKDYIIISWKQPAVDGGSPILGYFIDKCEVGTDSWSQCNDTPVKFARFPVTGLIEGRSYIFRVRAVNKMGIGFPSRVSEPVAALDPAEKARLKSRPSAPWTGQIIVTEEEPSEGIVPGPPTDLSVTEATRSYVVLSWKPPGQRGHEGIMYFVEKCEAGTENWQRVNTELPVKSPRFALFDLAEGKSYCFRVRCSNSAGVGEPSEATEVTVVGDKLDIP
notes: myomesin (MYOM1), human, Fn-III domains My4 and My5 with the linker L between them; My4 begins near residue 510 (My4LH is 510-618); My5 is in the crystallised protein but invisible in the electron density; Construct limits are in the Supplemental Experimental Procedures; also called My4L (name of the part visible in the crystal); source: E. coli, co-expressed with GST-OL3 or GST-O3 from a …
